According to PMC8024259, “The Pah-R261Q mouse reveals oxidative stress associated with amyloid-like hepatic aggregation of mutant phenylalanine hydroxylase” (Nature Communications, 2021):

Target: the molecule itself
Assay: SEC; preparative isolation of the tetramer after Factor Xa cleavage; Superdex HiLoad 16/600 200, 20 mM Hepes pH 7, 200 mM NaCl

B1: Recombinant human WT-PAH (phenylalanine hydroxylase) (enzyme, UniProt P00439 1-452, looked up)
chain: MSTAVLENPGLGRKLSDFGQETSYIEDNCNQNGAISLIFSLKEEVGALAKVLRLFEENDVNLTHIESRPSRLKKDEYEFFTHLDKRSLPALTNIIKILRHDIGATVHELSRDKKKDTVPWFPRTIQELDRFANQILSYGAELDADHPGFKDPVYRARRKQFADIAYNYRHGQPIPRVEYMEEEKKTWGTVFKTLKSLYKTHACYEYNHIFPLLEKYCGFHEDNIPQLEDVSQFLQTCTGFRLRPVAGLLSSRDFLGGLAFRVFHCTQYIRHGSKPMYTPEPDICHELLGHVPLFSDRSFAQFSQEIGLASLGAPDEYIEKLATIYWFTVEFGLCKQGDSIKAYGAGLLSSFGELQYCLSEKPKLLPLELEKTAIQNYTVTEFQPLYYVAESFNDAKEKVRNFAATIPRPFSVRYDPYTQRIEVLDNTQQLKILADSINSEIGILCSALQKIK
notes: phenylalanine hydroxylase, human, expressed from pMAL as MBP-(pep)xa-PAH and cleaved with Factor Xa; source: E. coli TB1, purified (amylose resin, Factor Xa cleavage, SEC); not shown: MBP, N-terminal, cleaved
In the case of B1, the “stoichiometry N” value is reported as 4.

B2: Recombinant human p.R261Q-PAH (phenylalanine hydroxylase, p.Arg261Gln variant) (enzyme, UniProt P00439 1-452, looked up)
chain: MSTAVLENPGLGRKLSDFGQETSYIEDNCNQNGAISLIFSLKEEVGALAKVLRLFEENDVNLTHIESRPSRLKKDEYEFFTHLDKRSLPALTNIIKILRHDIGATVHELSRDKKKDTVPWFPRTIQELDRFANQILSYGAELDADHPGFKDPVYRARRKQFADIAYNYRHGQPIPRVEYMEEEKKTWGTVFKTLKSLYKTHACYEYNHIFPLLEKYCGFHEDNIPQLEDVSQFLQTCTGFRLRPVAGLLSSRDFLGGLAFQVFHCTQYIRHGSKPMYTPEPDICHELLGHVPLFSDRSFAQFSQEIGLASLGAPDEYIEKLATIYWFTVEFGLCKQGDSIKAYGAGLLSSFGELQYCLSEKPKLLPLELEKTAIQNYTVTEFQPLYYVAESFNDAKEKVRNFAATIPRPFSVRYDPYTQRIEVLDNTQQLKILADSINSEIGILCSALQKIK
notes: phenylalanine hydroxylase, human, PKU patient variant p.R261Q, expressed from pMAL as MBP-(pep)xa-PAH and cleaved with Factor Xa; Variant that occurs in PKU patients (c.782G>A); also called p.PAH-R261Q; source: E. coli TB1, purified (amylose resin, Factor Xa cleavage, SEC); not shown: MBP, N-terminal, cleaved
In the case of B2, the “stoichiometry N” value is reported as 4.
